Mean rupture force data for one substance are collected here from paper PMC4197110.

For this experiment, the target named is dynamic microtubules grown from GMPCPP-stabilized seeds (UniProt Q6B856). Put plainly: optical trap rupture force assay.
Chain of UniProt Q6B856 (Q6B856 whole entry, looked up): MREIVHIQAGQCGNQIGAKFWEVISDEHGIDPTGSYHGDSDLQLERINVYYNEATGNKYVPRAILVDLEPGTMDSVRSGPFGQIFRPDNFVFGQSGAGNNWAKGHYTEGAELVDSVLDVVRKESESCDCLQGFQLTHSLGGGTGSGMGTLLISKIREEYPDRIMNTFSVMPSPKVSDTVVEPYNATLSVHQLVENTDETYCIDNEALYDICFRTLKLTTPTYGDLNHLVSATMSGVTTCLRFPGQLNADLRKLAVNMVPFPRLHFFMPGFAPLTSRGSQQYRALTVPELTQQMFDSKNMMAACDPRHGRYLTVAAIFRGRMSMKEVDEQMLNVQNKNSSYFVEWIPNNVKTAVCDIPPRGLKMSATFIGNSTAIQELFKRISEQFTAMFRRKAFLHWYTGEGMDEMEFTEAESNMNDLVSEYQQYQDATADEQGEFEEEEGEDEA

“dad1-1 kinetochore particles (from UniProt P40568 1-576) (complex)” gave a mean rupture force of 2.7 pN.
